Residue numbers refer to the chain shown, from its start. Names may count otherwise.
T1: cynomolgus monkey (Macaca fascicularis) TfR1 (cynomolgus monkey (Macaca fascicularis), UniProt Q5RDH6 89-760 (Pongo abelii entry), limits assumed)
T1 construct: also called cTfR1; cyTfR1
T1 chain: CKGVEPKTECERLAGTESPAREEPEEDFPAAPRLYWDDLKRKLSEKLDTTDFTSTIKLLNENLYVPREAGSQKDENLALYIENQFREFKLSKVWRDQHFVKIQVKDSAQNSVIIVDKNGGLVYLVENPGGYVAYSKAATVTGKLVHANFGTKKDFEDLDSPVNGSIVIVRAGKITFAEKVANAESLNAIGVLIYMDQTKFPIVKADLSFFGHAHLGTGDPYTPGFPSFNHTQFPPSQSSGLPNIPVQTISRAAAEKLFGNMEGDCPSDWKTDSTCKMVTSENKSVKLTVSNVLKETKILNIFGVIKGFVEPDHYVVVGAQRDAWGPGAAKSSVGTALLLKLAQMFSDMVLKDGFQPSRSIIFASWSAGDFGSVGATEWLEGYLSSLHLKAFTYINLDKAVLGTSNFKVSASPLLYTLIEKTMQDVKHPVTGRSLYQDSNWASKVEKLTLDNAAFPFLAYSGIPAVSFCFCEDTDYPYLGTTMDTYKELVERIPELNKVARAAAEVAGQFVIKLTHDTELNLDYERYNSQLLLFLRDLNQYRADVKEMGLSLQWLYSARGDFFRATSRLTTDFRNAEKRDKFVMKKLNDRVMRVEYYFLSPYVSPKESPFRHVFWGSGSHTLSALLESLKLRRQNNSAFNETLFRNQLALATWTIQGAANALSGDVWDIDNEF

B1: humanized anti-TfR Fab 5H12 VH5 (C33Y)/Vk4 (Fab, V domains shown)
VH: QVQLVQSGAEVKKPGASVKVSCKASGYSFTDYYINWVRQAPGQGLEWMGWIYPGSGNTRYSERFKGRVTITRDTSASTAYMELSSLRSEDTAVYYCAREDYYPYHGMDYWGQGTLVTVSS
VL: DIVMTQSPDSLAVSLGERATINCRASESVDGYDNSFMHWYQQKPGQPPKLLIFRASNLESGVPDRFSGSGSGTDFTLTISSLQAEDVAVYYCQQSSEDPWTFGQGTKLEIKR
B2: humanized anti-TfR Fab 5H12 VH5 (C33Y)/Vk3 (Fab, V domains shown)
VH: B1 VH
VL: B1 VL with M4L, G72R
B3: humanized anti-TfR Fab 5H12 VH5 (C33D)/Vk4 (Fab, V domains shown)
VH: B1 VH with Y33D
VL: B1 VL
B4: humanized anti-TfR Fab 3A4 VH3 (N54T)/Vk4 (Fab, V domains shown)
VH: EVQLVQSGSELKKPGASVKVSCTASGFNIKDDYMYWVRQPPGKGLEWIGWIDPETGDTEYASKFQDRVTVTADTSTNTAYMELSSLRSEDTAVYYCTLWLRRGLDYWGQGTLVTVSS
VL: DIVMTQSPLSLPVTPGEPASISCRSSKSLLHSNGYTYLFWFQQRPGQSPRLLIYRMSNLASGVPDRFSGSGSGTDFTLKISRVEAEDVGVYYCMQHLEYPFTFGGGTKVEIKR
B5: humanized anti-TfR Fab 3A4 VH3/Vk4 (Fab, V domains shown)
VH: B4 VH with T55N
VL: B4 VL
B6: humanized anti-TfR Fab 3A4 VH3 (N54S)/Vk4 (Fab, V domains shown)
VH: B4 VH with T55S
VL: B4 VL
B7: humanized anti-TfR Fab 3M12 VH3/Vk2 (Fab, V domains shown)
VH: QVQLQESGPGLVKPSQTLSLTCSVTGYSITSGYYWNWIRQPPGKGLEWMGYITFDGANNYNPSLKNRVSISRDTSKNQFSLKLSSVTAEDTATYYCTRSSYDYDVLDYWGQGTTVTVSS
VL: DIQMTQSPSSLSASVGDRVTITCRASQDISNFLNWYQQKPGQPVKLLIYYTSRLHSGVPSRFSGSGSGTDFTLTISSLQPEDFATYFCQQGHTLPYTFGQGTKLEIKR
B8: humanized anti-TfR Fab 3M12 VH3/Vk3 (Fab, V domains shown)
VH: B7 VH
VL: B7 VL with F87Y
B9: humanized anti-TfR Fab 3M12 VH4/Vk2 (Fab, V domains shown)
VH: B7 VH with S23T, M49I
VL: B7 VL
B10: conjugate of humanized anti-TfR Fab 5H12 VH5 (C33Y)/Vk4 with DMPK-targeting oligonucleotide ASO300 (Fab, V domains shown)
VH: B1 VH
VL: B1 VL
modifications: ASO300 oligonucleotide attached through a cleavable Val-Cit linker (Formula (C)); residue and chain not stated
notes: also called 5H12 (VH5-C33Y/Vk4) conjugate; DMPK oligo conjugate
B11: conjugate of humanized anti-TfR Fab 5H12 VH5 (C33D)/Vk4 with DMPK-targeting oligonucleotide ASO300 (Fab, V domains shown)
VH: B1 VH with Y33D
VL: B1 VL
modifications: ASO300 oligonucleotide attached through a cleavable Val-Cit linker (Formula (C)); residue and chain not stated
notes: also called 5H12 (VH5-C33D/Vk4) conjugate; DMPK oligo conjugate
B12: conjugate of humanized anti-TfR Fab 3A4 VH3 (N54T)/Vk4 with DMPK-targeting oligonucleotide ASO300 (Fab, V domains shown)
VH: B4 VH
VL: B4 VL
modifications: ASO300 oligonucleotide attached through a cleavable Val-Cit linker (Formula (C)); residue and chain not stated
notes: also called 3A4 (VH3-N54T/Vk4) conjugate; DMPK oligo conjugate
B13: conjugate of humanized anti-TfR Fab 3A4 VH3/Vk4 with DMPK-targeting oligonucleotide ASO300 (Fab, V domains shown)
VH: B4 VH with T55N
VL: B4 VL
modifications: ASO300 oligonucleotide attached through a cleavable Val-Cit linker (Formula (C)); residue and chain not stated
notes: also called 3A4 (VH3/Vk4) conjugate; DMPK oligo conjugate
B14: conjugate of humanized anti-TfR Fab 3A4 VH3 (N54S)/Vk4 with DMPK-targeting oligonucleotide ASO300 (Fab, V domains shown)
VH: B4 VH with T55S
VL: B4 VL
modifications: ASO300 oligonucleotide attached through a cleavable Val-Cit linker (Formula (C)); residue and chain not stated
notes: also called 3A4 (VH3-N54S/Vk4) conjugate; DMPK oligo conjugate
B15: conjugate of humanized anti-TfR Fab 3M12 VH3/Vk2 with DMPK-targeting oligonucleotide ASO300 (Fab, V domains shown)
VH: B7 VH
VL: B7 VL
modifications: ASO300 oligonucleotide attached through a cleavable Val-Cit linker (Formula (C)); residue and chain not stated
notes: also called 3M12 (VH3/Vk2) conjugate; DMPK oligo conjugate
B16: conjugate of humanized anti-TfR Fab 3M12 VH4/Vk3 with DMPK-targeting oligonucleotide ASO300 (Fab, V domains shown)
VH: B7 VH with S23T, M49I
VL: B7 VL with F87Y
modifications: ASO300 oligonucleotide attached through a cleavable Val-Cit linker (Formula (C)); residue and chain not stated
notes: also called 3M12 (VH4/Vk3) conjugate; DMPK oligo conjugate
B17: conjugate of humanized anti-TfR Fab 5H12 VH5 (C33Y)/Vk3 with DMPK-targeting oligonucleotide ASO300 (Fab, V domains shown)
VH: B1 VH
VL: B1 VL with M4L, G72R
modifications: ASO300 oligonucleotide attached through a cleavable Val-Cit linker (Formula (C)); residue and chain not stated
notes: also called 5H12 (VH5-C33Y/Vk3) conjugate
B18: anti-TfR Fab 3M12 VH4/Vk3 (Fab, V domains shown)
VH: B7 VH with S23T, M49I
VL: B7 VL with F87Y

Molecular target: T1, cynomolgus monkey (Macaca fascicularis) …
Assay: ELISA, d0
Protocol: (§1) To measure binding of humanized anti-TfR antibodies to TfR1, ELISAs were conducted. High binding, black, flat bottom, 96 well plates (Corning# 3925) were first coated with 100 µL/well of recombinant huTfR1 at 1 µg/mL in PBS and incubated at 4° C. overnight. Wells were emptied and residual liquid was removed. Blocking was conducted by adding 200 µL of 1%BSA (w/w) in PBS to each well. Blocking was allowed to proceed for 2 hours at room temperature on a shaker at 300 rpm. After blocking, liquid was removed and wells were washed three times with 300 µL of TBST. Anti-TfR1 antibodies were then added in 0.5% BSA/TBST in triplicate in an 8 point serial dilution (dilution range 5 µg/mL- 5 ng/mL). A positive control and isotype controls were also included on the ELISA plate. The plate was incubated at room temperature on an orbital shaker for 60 minutes at 300 rpm, and the plate was washed three times with 300 µL of TBST. Anti-(H+L)IgG-A488 (1:500) (Invitrogen #A11013) was diluted in 0.5% BSA in TBST, and 100 µL was added to each well. The plate was then allowed to incubate at room temperature for 60 minutes at 300 rpm on orbital shaker. The liquid was removed and the plate was washed four times with 300 µL of TBST. Absorbance was then measured at 495 nm excitation and […] (with a 15 nm bandwidth) on a plate reader. Data was recorded and analyzed for EC₅₀. […] ELISA measurements were conducted using cynomolgus monkey (Macaca fascicularis) TfR1 (cTfR1) according to the same protocol described above for hTfR1, and results are shown in FIGS. 9B, 9D, and 9F.

| EC50 [nM] | Binder |
| --- | --- |
| 3.3 | B1 |
| 2.1 | B2 |
| 3.5 | B3 |
| 156 | B4 |
| 122 | B5 |
| 398 | B6 |
| 9.9 | B7 |
| 4.7 | B8 |
| 1.4 | B9 |

Molecular target: T1, cynomolgus monkey (Macaca fascicularis) …
Assay: ELISA, coated recombinant TfR1, unconjugated Fab
Protocol: as §1

| EC50 [nM] | Binder |
| --- | --- |
| 3.3 | B1 |
| 2.1 | B2 |
| 3.5 | B3 |
| 156 | B4 |
| 122 | B5 |
| 398 | B6 |
| 9.9 | B7 |
| 4.7 | B8 |
| 1.4 | B9 |

Molecular target: T1, cynomolgus monkey (Macaca fascicularis) …
Assay: ELISA, Fab-ASO300 conjugate

| EC50 [nM] | Binder |
| --- | --- |
| 13.9 | B10 |
| 10.2 | B11 |
| 5.12 | B12 |
| 7.59 | B13 |
| 4.1 | B14 |
| 2.26 | B15 |
| 1.85 | B16 |

Molecular target: T1, cynomolgus monkey (Macaca fascicularis) …
Assay: ELISA, coated recombinant TfR1, Fab-ASO300 conjugate

| EC50 [nM] | Binder |
| --- | --- |
| 3.3 | B10 |
| 2.3 | B17 |
| 10.2 | B11 |
| 4.7 | B12 |
| 7.6 | B13 |
| 7.8 | B14 |
| 2.9 | B15 |
| 2.1 | B16 |

Molecular target: T1, cynomolgus monkey (Macaca fascicularis) …
Assay: ELISA, d9 (after 9 days at 40 C)

| EC50 [nM] | Binder |
| --- | --- |
| 0.26 | B1 |
| 0.69 | B2 |
| 0.63 | B3 |
| 128 | B4 |
| 878 | B5 |
| 248 | B6 |
| 19.5 | B7 |
| 15.6 | B8 |
| 16.4 | B18 |
| 5.01 | B9 |

— US20230285582A1 (published 2023)
